Source: paper PMC6735865 (Nucleic Acids Research, 2019)

Molecular target: human METTL5, C-terminally His6-tagged (human, UniProt Q9NRN9)
Test: pull-down

human METTL5, C-terminally His6-tagged, sequence (Q9NRN9 whole entry): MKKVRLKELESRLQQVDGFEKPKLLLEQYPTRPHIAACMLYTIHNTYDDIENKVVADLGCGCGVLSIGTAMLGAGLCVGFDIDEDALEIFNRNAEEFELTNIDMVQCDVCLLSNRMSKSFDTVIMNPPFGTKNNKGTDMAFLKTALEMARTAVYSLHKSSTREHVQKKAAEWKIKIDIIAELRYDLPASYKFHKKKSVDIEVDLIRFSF

- binding result: binds
B1: human TRMT112, untagged (natural protein)
chain: MKLLTHNLLSSHVRGVGSRGFPLRLQATEVRICPVEFNPNFVARMIPKVEWSAFLEAADNLRLIQVPKGPVEGYEENEEFLRTMHHLLLEVEVIEGTLQCPESGRMFPISRGIPNMLLSEEETES
